Data published in publication PMC12220430.
Like-named read-outs stand apart in the source and are kept apart here.

T1: rPdxR (Sco1417) (Streptomyces coelicolor A3(2) M145) (UniProt Q9RKX6)
T1 sequence: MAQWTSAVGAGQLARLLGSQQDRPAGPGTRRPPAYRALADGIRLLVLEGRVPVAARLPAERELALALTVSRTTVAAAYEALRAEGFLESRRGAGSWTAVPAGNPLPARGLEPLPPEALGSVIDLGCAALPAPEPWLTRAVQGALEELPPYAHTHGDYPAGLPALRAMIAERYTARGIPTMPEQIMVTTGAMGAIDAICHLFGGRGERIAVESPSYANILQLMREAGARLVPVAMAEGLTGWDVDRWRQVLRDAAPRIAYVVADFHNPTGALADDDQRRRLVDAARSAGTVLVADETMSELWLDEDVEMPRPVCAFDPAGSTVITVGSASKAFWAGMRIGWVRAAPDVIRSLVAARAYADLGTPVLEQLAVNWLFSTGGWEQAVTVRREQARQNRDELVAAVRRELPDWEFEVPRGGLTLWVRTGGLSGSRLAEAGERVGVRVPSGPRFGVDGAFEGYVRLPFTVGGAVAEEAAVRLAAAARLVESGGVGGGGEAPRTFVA

T2: rPdxR (Sco1417) (Streptomyces coelicolor A3(2) M145, UniProt Q9RKX6)
T2 sequence: T1 sequence

B1: R2 (dsDNA)
DNA 1: TCAACCATGGCCAATTTGGGGAAGGTGGACTGATTT
DNA 2: AAATCAGTCCACCTTCCCCAAATTGGCCATGGTTGA
B2: ST (dsDNA)
DNA 1: ACGAAAACGATCCACCGCCTTCTCATTGGCCCTTGCTGTGGCCTGCT
DNA 2: AGCAGGCCACAGCAAGGGCCAATGAGAAGGCGGTGGATCGTTTTCGT
B3: ST2 (dsDNA)
DNA 1: CTTCTCATTGGCCCTTGCTGTGGCCTGCTC
DNA 2: GAGCAGGCCACAGCAAGGGCCAATGAGAAG
B4: ST2a (dsDNA)
DNA 1: CTTCTCATTGGCCCTTGCTAAAACCTGCTC
DNA 2: GAGCAGGTTTTAGCAAGGGCCAATGAGAAG
B5: ST2b (dsDNA)
DNA 1: CTTCTCAAAAACCCTTGCTGTGGCCTGCTC
DNA 2: GAGCAGGCCACAGCAAGGGTTTTTGAGAAG
B6: R1 (dsDNA)
DNA 1: TGGGGTGGTGGTAGTGGACTGCCACATGACACCCTGTGGCTTCAGAA
DNA 2: TTCTGAAGCCACAGGGTGTCATGTGGCAGTCCACTACCACCACCCCA

Tests used:
[1] = target: T1, rPdxR (Sco1417) (Streptomyces coelicolor A3(2) M145); assay: competition
rPdxR (Sco1417) [2] = target: T2, rPdxR (Sco1417); assay: EMSA
rPdxR (Sco1417) [3] = target: T2, rPdxR (Sco1417); assay: EMSA; remark: listed apart in the source

Row | Molecule | binding result (rPdxR (Sco1417) [2]) | other results
1 | TGCTGGACACGGGTACCTCACTGGGGAGAAGGGGGGTTGTGCAGCAACGAGGAAACGTGAGGTGAGCAGGCCACAGCAAGGGCCAATGAGAAGGCGGTGGATCGTTTTCGTCCCCCGGGCGCTACGCCGCCCGCTCCACCAGGGCGGCCGGCGACTCGTCGTCCATCTCGAAGGCCAGCGGGAAGGGCGCGTGCCCGGCGAGGCGGAACCAGCGGACCTTGCGGTGCTCGCGCAGCCTGCGGGCCGCCCCCACCGCGTCGTTGTGGAAGCGGCGG (double strand) [pdxSTp] |  | binding [1]: binds
2 | ACTGCGCCATGGAAATCAGTCCACCTTCCCCAAATTGGCCATGGTTGACTCTTCTTCTGAAGCCACAGGGTGTCATGTGGCAGTCCACTACCACCACCCCAGGGGGCACTTCTTGTCCAGGCAGTCCAGACAGTCGAGGCAATCCGGGCAGTCCGGATGGTCCGGGCGACTCGCGCGGCGGCTGACGCAGCTCTACGGCGGTCTCGTCCTGTACGGAGCGAGTTCGGCGCTGCTGGTCAGGTCCGGGCTCGGCCTCGAACCGTGGAACGTGCTGCACCAG (double strand) [pdxRp] |  | binding [1]: binds
3 | B1 | binds | 
4 | B2 | binds | 
5 | B3 | binds | 
6 | B4 |  | binding result (rPdxR (Sco1417) [3]): no binding
7 | B5 |  | binding result (rPdxR (Sco1417) [3]): no binding
8 | B6 | binds | 
